B1: PHD2 and PHD3 fingers of human MLL4 (aa 227-324) [human] / ASXL2 peptide (residues 650-670 of ASXL2) [human] (parent complex)
chain 1: ARCAVCEGPGELCDLFFCTSCGHHYHGACLDTALTARKRAGWQCPECKVCQACRKPGNDSKMLVCETCDKGYHTFCLKPPMEELPAHSWKCKACRVCR
chain 2: NRTGARTLADIKAKAQLVKAQ

Variants of: B1
Assay: fluorescence spectroscopy

Row | Kd [µM] | Variant
1 | 11 | chain 2 R6I

Variants of: B1
Assay: fluorescence spectroscopy
Remark: another data set of the same source

Row | Kd [µM] | Variant
2 | 10 | chain 1 E66K
